Assays:
Type in all cases: biochemical
[1] = test system: poly(dI)·poly(dC); experiment: Relative activity on poly(dI)·poly(dC)
Method: Transcription reactions: Transcription reactions were carried out in 40 mM Tris-Cl pH 8.0, 15 mM MgCl2, and 5 mM DTT or 20 mM Manganese Citrate pH 8.0, 5 mM DTT at 37° C. Template, polymerase, and NTP concentrations were as indicated in the legends to the figures and tables. Relative activity determinations were made by taking 4 μl aliquots of reactions at 5, 10, and 20 minute time points and spotting on to DE81 filter paper. Unincorporated nucleotides were separated from incorporated nucleotides by washing the filter paper with 0.5 M KH2PO4 pH 7.0 and retained radioactive nucleotide was quantitated with a Molecular Dynamics phosphorimager. To evaluate rNTP/dNTP selectivity, reactions were run with 4 rNTPs and pT75 as template and α-P^32 rNTPs or α-P^32 dNTPs were used to label the transcripts. The relative rate of incorporation of an rNTP vs. its cognate dNTP was determined from the relative percentages of labeled rNTP vs. dNTP incorporated into DE81 retainable RNA at 5, 10, and 20 minute time points. Apparent miscoding frequencies were determined similarly, though in this instance the template was a single-stranded homopolymer and the reaction contained the complementary unlabeled rNTP, and complementary α-P^32 rNTP or one of the 3 non-complementary α-P^32 rNTPs. The relative percentages of labeled complementary vs. non-complementary rNTPs incorporated at 5, 10 and 20 minute time points gave an apparent miscoding rate. The rNTP/dNTP selectivity assay was used to test the following T7 RNAP mutants for effects on substrate discrimination: D537S, D537E, S539A, R5S1S, D552S, R627S, K631S, L637A, Y639S, Y639F, Y639A, G640A, F644A, G645A, Q649S, […], H811S, H811A, D812A, D812E, D812S, D812N, D879E+ΔF882+ΔA883, D879E+A881T+ΔA883, D879E+F884+A885, D879E+F882Y, D879E+ΔA883, D879E+F882W, D879E.
DNA and RNA synthesis on homopolymeric templates: T7 RNAP will synthesize poly(rG) RNAs on poly(dC) templates (Bonner, et al., 1994; Ikeda and Richardson 1987). The activity of the W.T. and mutant polymerases were measured on poly(dI)-poly(dC) with rGTP, dGTP, dGTP+rGMP (see, Table III).
Numbers give mean and range from 3 experiments. Templates were at 0.2 mg/ml, polymerases at 10^-8 M. Labeling NTPs were α-P^32 rGTP, α-P^32 dGTP, α-P^32 rATP, α-P^32 dATP, as appropriate. rNTPs or rNMPs at 0.5 mM; dNTPs at 1 mM.

[2] = test system: supercoiled pT75; experiment: Kinetic constants (Km, kcat) with rNTPs or dNTPs
Excerpt: 1. One first determines the Km and the kcat for each enzyme (mutant and wild-type) using the non-canonical nucleotide as a substrate and using the canonical nucleotide as a substrate, as was described previously (Patra, et al., 1992). The value “Km” expresses how readily the enzyme will bind the substrate (a larger Km implies weaker binding) and “kcat” expresses the rapidity with which the substrate, once bound by the enzyme, is reacted upon.
2. One next calculates the numerical value for kcat/Km for each enzyme and for each substrate. By broad scientific consensus, the specificity of an enzyme for a substrate is felt to be most suitably expressed by this ratio.
3. For each enzyme, one then calculates the numerical value obtained by using the value of kcat/Km for the canonical substrate in the numerator and kcat/Km for the non-canonical substrate in the denominator. This number indicates how much a given enzyme discriminates between the two substrates. […] If this value is greater than 1, then the enzyme discriminates by that factor between the two substrates; for example, if the value is 100, then the enzyme discriminates by a factor of 100 in favor of the canonical substrate compared to the non-canonical substrate. Similarly, a value less than 1 means that the enzyme discriminates in favor of the non-canonical substrate over the canonical substrate.
4. Finally, one compares the numerical value calculated in step 3 above for the wild-type (W.T.) enzyme with the value calculated in step 3 for the mutant enzyme. If the value calculated for the mutant enzyme is less than the value calculated for the wild-type enzyme, then the mutant enzyme “has a reduced discrimination for the non-canonical substrate compared to the wild-type enzyme.” For example, if the values calculated in step 3 are 100 for the wild-type enzyme and 10 for the mutant enzyme, then the discrimination of the mutant enzyme in favor of the canonical substrate (or against the non-canonical substrate) is reduced 10-fold compared to the discrimination of the wild-type enzyme.
Determination of NTP Km and kcat was as described previously (Patra, et al., 1992).
The increased utilization of dNTPs by Y639F is due to both a decreased Km and an increased kcat for dNTPs: The Km and kcat of the W.T. and Y639F polymerases with rATP, rITP and 5 different dNTPs were measured (see, Table VI).

[3] = test system: pT75; experiment: Activity with NTPs containing different 2′-substituents; parameters: unit not given here
Method: Activity was determined with pT75 as template but with one of the rNTPs replaced with a dNTP or a 2′-modified NTP. The labeling NTP was UTP (in reactions with 2′-modified CTPs or ATPs) or CTP (in reactions with 2′-modified UTPs). Y639F and Y639M represent enzymes with substitutions of the wild-type (W.T.) tyrosine at position 639 by phenyalanine (F) or methionine (M), respectively.

[4] = rGTP, mean and range from 3 experiments
[5] = rATP, ranges from 3 experiments

Row | Substance | Relative activity on poly(dI)·poly(dC) ([1]; dGTP) | Relative activity on poly(dI)·poly(dC) ([1]; dGTP + rGMP) | Relative activity on poly(dI)·poly(dC) [1, 4] | Discrimination rNTPs vs. dNTPs: average kcat/Km of four rNTPs over average kcat/Km of four dNTPs [2] | Kcat ([2]; DTTP) | Km ([2]; DTTP) | Kcat ([2]; dATP) | Km ([2]; dATP) | Kcat ([2]; dCTP) | Km ([2]; dCTP) | Kcat ([2]; dGTP) | Km ([2]; dGTP) | Kcat ([2]; dUTP) | Km ([2]; dUTP) | Kcat ([2]; rATP) | Km [2, 5] | Kcat ([2]; rITP) | Km ([2]; rITP) | Activity ([3]; 2′-F-ATP replacing ATP) | Activity ([3]; 2′-F-CTP replacing CTP) | other results
1 | W.T.: wild-type T7 RNA polymerase [reference compound] | 7.4 (5.4-12.5) | 25 (20-27) | 1000 | about 120 fold | 26 to 29 s⁻¹ | 209 to 262 µM | 6 to 9 s⁻¹ | 2000 to 5000 µM | 9 to 14 s⁻¹ | 4300 to 13500 µM | 5 to 9 s⁻¹ | 602 to 701 µM | 25 to 39 s⁻¹ | 4400 to 9000 µM | 190 to 220 s⁻¹ | 34 to 68 µM | 170 to 230 s⁻¹ | 29 to 59 µM | 6.6 ± .12 | 3.4 ± .22 | Activity ([3]; 2′-F-UTP replacing UTP): 3.1 ± .14; Activity ([3]; 2′-NH2-ATP replacing ATP): 18 ± .39; Activity ([3]; 2′-NH2-CTP replacing CTP): 34 ± .86; Activity ([3]; 2′-NH2-UTP replacing UTP): 5.9 ± .27; Activity ([3]; 2′-dATP replacing ATP): 2.7 ± .28; Activity ([3]; 2′-dCTP replacing CTP): 1.6 ± .16; Activity ([3]; 2′-dUTP replacing UTP): 2.4 ± .11; Activity ([3]; ATP): 100; Activity ([3]; CTP): 100; Activity ([3]; UTP): 100
2 | Y639F: T7 RNAP with wild-type tyrosine at position 639 substituted by phenylalanine | 964 (684-1257) | 1070 (816-1457) | 1000 | about 6 fold | 70 to 110 s⁻¹ | 38 to 59 µM | 50 to 70 s⁻¹ | 200 to 350 µM | 50 to 90 s⁻¹ | 920 to 1600 µM | 30 to 50 s⁻¹ | 185 to 264 µM | 70 to 130 s⁻¹ | 52 to 92 µM | 150 to 210 s⁻¹ | 53 to 125 µM | 180 to 200 s⁻¹ | 34 to 94 µM | 50 ± 1.4 | 63 ± 3.1 | kcat with dNTPs less than for rNTPs [2]: 2-4 fold; Reduced discrimination between dNTPs and rNTPs compared to wild-type ([2]; from average kcat/Km values): ~20 fold; Activity ([3]; 2′-F-UTP replacing UTP): 73 ± 2.6; Activity ([3]; 2′-NH2-ATP replacing ATP): 21 ± .75; Activity ([3]; 2′-NH2-CTP replacing CTP): 60 ± 2.5; Activity ([3]; 2′-NH2-UTP replacing UTP): 12 ± .41; Activity ([3]; 2′-dATP replacing ATP): 40 ± 1.3; Activity ([3]; 2′-dCTP replacing CTP): 57 ± 1.7; Activity ([3]; 2′-dUTP replacing UTP): 46 ± 2.4; Activity ([3]; ATP): 96 ± 3.0; Activity ([3]; CTP): 103 ± 2.3; Activity ([3]; UTP): 95 ± 6.7
